# Reference: article PMC9482650, “Quantitative fragmentomics allow affinity mapping of interactomes” (Nature Communications, 2022)
# What was measured:
# Experiment in all cases: holdup assay
# Parameters in all cases: key: below the threshold = too weak to quantify, mostly under pKd 3.1 to 4
# DFNB31_3, Q9P202 = molecular target: T1, DFNB31_3, Q9P202
# T1 sequence (Q9P202 811-907, limits assumed, looked up): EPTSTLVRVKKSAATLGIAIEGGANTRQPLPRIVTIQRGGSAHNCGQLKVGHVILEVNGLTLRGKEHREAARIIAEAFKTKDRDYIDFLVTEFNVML
# APBA2_1, Q99767 = molecular target: T2, APBA2_1, Q99767
# T2 sequence (Q99767 563-664, limits assumed, looked up): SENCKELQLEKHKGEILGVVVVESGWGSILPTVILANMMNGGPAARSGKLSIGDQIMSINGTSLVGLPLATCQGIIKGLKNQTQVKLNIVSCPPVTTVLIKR
# GRIP2_5, Q9C0E4 = molecular target: GRIP2_5, Q9C0E4
# Sequence of GRIP2_5, Q9C0E4 (Q9C0E4 544-642): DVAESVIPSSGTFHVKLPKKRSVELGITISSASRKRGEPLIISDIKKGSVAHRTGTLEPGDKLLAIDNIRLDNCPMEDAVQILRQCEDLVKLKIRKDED
# Inadl_6, Q8NI35 = molecular target: Inadl_6, Q8NI35
# Sequence of Inadl_6, Q8NI35 (Q8NI35 1058-1167): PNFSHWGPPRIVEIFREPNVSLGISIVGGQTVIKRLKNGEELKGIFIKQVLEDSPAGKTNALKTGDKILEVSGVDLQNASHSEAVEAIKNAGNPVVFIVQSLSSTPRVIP
# HTRA1, Q92743 = molecular target: HTRA1, Q92743
# Sequence of HTRA1, Q92743 (Q92743 360-477): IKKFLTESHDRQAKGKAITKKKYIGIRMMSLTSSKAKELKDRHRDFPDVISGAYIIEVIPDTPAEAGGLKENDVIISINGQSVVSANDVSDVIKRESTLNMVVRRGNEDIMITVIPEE
# Inadl_9, Q8NI35 = molecular target: Inadl_9, Q8NI35
# Sequence of Inadl_9, Q8NI35 (Q8NI35 1530-1615): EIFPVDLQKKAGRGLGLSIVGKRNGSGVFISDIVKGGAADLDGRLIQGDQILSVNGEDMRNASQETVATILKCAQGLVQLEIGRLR
# DLG3_3, Q92796 = molecular target: T3, DLG3_3, Q92796
# T3 sequence (Q92796 374-475, limits assumed, looked up): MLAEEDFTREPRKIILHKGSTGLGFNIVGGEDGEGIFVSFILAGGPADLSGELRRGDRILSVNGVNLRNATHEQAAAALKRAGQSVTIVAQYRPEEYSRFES
# APBA3_1, O96018 = molecular target: T4, APBA3_1, O96018
# T4 sequence (O96018 389-490, limits assumed, looked up): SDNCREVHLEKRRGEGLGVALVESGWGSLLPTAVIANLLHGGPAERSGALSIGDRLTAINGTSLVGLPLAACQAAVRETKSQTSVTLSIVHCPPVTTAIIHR
# MAST1, Q9Y2H9 = molecular target: MAST1, Q9Y2H9
# Sequence of MAST1, Q9Y2H9 (Q9Y2H9 962-1065): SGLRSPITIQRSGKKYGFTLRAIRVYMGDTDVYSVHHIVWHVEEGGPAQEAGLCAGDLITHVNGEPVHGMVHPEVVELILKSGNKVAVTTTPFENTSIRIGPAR
# NHERF2_2, Q15599 = molecular target: NHERF2_2, Q15599
# Sequence of NHERF2_2, Q15599 (Q15599 142-238): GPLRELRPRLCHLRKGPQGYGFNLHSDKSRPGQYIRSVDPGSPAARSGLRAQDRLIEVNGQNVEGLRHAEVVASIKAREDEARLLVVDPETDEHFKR
# DFNB31_2, Q9P202 = molecular target: T5, DFNB31_2, Q9P202
# T5 sequence (Q9P202 274-371, limits assumed, looked up): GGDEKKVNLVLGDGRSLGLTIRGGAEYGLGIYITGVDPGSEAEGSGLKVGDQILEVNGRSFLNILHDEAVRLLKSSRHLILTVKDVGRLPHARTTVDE
# MPP6, Q9NZW5 = molecular target: T6, MPP6, Q9NZW5
# T6 sequence (Q9NZW5 125-219, limits assumed, looked up): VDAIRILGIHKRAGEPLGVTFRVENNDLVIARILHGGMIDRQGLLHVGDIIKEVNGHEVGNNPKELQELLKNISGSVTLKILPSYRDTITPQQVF
# LAP2, Q96RT1 = molecular target: LAP2, Q96RT1
# Sequence of LAP2, Q96RT1 (Q96RT1 other isoform, or with tags, fused parts or gaps): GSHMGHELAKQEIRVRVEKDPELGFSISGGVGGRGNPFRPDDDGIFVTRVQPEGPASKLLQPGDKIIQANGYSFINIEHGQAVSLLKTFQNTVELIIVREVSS
# PARD3B_1, Q8TEW8 = molecular target: T7, PARD3B_1, Q8TEW8
# T7 sequence (Q8TEW8 196-299, limits assumed, looked up): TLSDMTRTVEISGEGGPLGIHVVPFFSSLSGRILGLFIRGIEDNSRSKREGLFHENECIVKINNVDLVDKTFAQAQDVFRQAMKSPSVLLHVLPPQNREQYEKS
# DLG4_3, P78352 = molecular target: DLG4_3, P78352
# Sequence of DLG4_3, P78352 (P78352 306-403): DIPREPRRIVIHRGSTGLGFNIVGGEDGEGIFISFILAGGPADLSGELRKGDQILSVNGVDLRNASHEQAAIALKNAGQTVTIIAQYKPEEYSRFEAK
# GRASP, Q7Z6J2 = molecular target: GRASP, Q7Z6J2
# Sequence of GRASP, Q7Z6J2 (Q7Z6J2 96-193): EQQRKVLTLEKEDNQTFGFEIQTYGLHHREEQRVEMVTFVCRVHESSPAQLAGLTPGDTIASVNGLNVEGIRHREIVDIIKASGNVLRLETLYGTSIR
# LNX1_2, Q8TBB1 = molecular target: LNX1_2, Q8TBB1
# Sequence of LNX1_2, Q8TBB1 (Q8TBB1 371-470): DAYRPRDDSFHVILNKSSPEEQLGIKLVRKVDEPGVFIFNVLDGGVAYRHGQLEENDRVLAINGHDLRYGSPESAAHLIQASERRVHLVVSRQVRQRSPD
# DLG3_2, Q92796 = molecular target: T8, DLG3_2, Q92796
# T8 sequence (Q92796 221-321, limits assumed, looked up): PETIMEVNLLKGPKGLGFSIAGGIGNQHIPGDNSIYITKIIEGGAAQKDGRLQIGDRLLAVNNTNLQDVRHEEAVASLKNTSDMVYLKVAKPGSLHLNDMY
# SNTA1, Q13424 = molecular target: T9, SNTA1, Q13424
# T9 sequence (Q13424 82-180, limits assumed, looked up): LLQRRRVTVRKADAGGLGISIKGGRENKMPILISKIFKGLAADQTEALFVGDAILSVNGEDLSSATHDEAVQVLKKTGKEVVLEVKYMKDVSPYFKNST
# Inadl_2, Q8NI35 = molecular target: Inadl_2, Q8NI35
# Sequence of Inadl_2, Q8NI35 (Q8NI35 238-335): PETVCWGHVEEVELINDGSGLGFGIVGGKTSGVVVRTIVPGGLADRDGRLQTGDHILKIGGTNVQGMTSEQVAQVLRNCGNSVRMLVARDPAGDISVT
# SCRIB_1, Q14160 = molecular target: SCRIB_1, Q14160
# Sequence of SCRIB_1, Q14160 (Q14160 718-814): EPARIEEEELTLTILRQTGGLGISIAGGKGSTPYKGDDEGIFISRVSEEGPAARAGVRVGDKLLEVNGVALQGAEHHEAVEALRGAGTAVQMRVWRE
# IL16_4, Q14005 = molecular target: IL16_4, Q14005
# Sequence of IL16_4, Q14005 (Q14005 1229-1329): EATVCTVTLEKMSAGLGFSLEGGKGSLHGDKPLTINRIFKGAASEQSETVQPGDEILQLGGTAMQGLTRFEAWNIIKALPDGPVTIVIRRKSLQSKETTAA
# MAGI2_4, Q86UL8 = molecular target: MAGI2_4, Q86UL8
# Sequence of MAGI2_4, Q86UL8 (Q86UL8 772-865): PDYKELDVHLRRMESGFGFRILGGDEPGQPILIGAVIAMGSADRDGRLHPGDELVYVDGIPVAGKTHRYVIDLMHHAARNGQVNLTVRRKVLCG
# IL16_1, Q14005 = molecular target: IL16_1, Q14005
# Sequence of IL16_1, Q14005 (Q14005 210-306): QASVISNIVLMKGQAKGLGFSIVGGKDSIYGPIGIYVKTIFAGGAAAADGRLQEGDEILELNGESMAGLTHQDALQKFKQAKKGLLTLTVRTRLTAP
# SNTG1, Q9NSN8 = molecular target: T10, SNTG1, Q9NSN8
# T10 sequence (Q9NSN8 52-150, limits assumed, looked up): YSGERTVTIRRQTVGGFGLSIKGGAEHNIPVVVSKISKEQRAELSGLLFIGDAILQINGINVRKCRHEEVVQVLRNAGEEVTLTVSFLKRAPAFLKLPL
# HTRA3, P83110 = molecular target: T11, HTRA3, P83110
# T11 sequence (P83110 354-453, limits assumed, looked up): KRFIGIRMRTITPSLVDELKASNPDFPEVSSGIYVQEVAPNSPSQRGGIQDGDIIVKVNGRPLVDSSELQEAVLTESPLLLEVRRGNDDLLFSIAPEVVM
# [1] = plain residues with an end cap or a label only (N-terminal biotin on a linker: ahx)
# [2] = plain residues with an end cap or a label only (N-terminal biotin on a linker: ado-ado)
binder,measurement,setting,value
"APSRKLNTEI [TIAM1, Q13009]",pKd,"DFNB31_3, Q9P202; [1]",below the threshold
same,pKd,"APBA2_1, Q99767; [1]",below the threshold
same,pKd,"GRIP2_5, Q9C0E4; [1]",below the threshold
same,pKd,"Inadl_6, Q8NI35; [1]",below the threshold
same,pKd,"HTRA1, Q92743; [1]",below the threshold
same,pKd,"Inadl_9, Q8NI35; [1]",below the threshold
same,pKd,"DLG3_3, Q92796; [1]",below the threshold
same,pKd,"APBA3_1, O96018; [1]",below the threshold
same,pKd,"MAST1, Q9Y2H9; [1]",below the threshold
same,pKd,"NHERF2_2, Q15599; [1]",below the threshold
same,pKd,"DFNB31_2, Q9P202; [1]",below the threshold
same,pKd,"MPP6, Q9NZW5; [1]",below the threshold
same,pKd,"LAP2, Q96RT1; [1]",below the threshold
same,pKd,"PARD3B_1, Q8TEW8; [1]",below the threshold
same,pKd,"DLG4_3, P78352; [1]",below the threshold
same,pKd,"GRASP, Q7Z6J2; [1]",below the threshold
same,pKd,"LNX1_2, Q8TBB1; [1]",below the threshold
same,pKd,"DLG3_2, Q92796; [1]",3.72
same,pKd,"SNTA1, Q13424; [1]",below the threshold
same,pKd,"Inadl_2, Q8NI35; [1]",below the threshold
same,pKd,"SCRIB_1, Q14160; [1]",below the threshold
same,pKd,"IL16_4, Q14005; [1]",below the threshold
same,pKd,"MAGI2_4, Q86UL8; [1]",below the threshold
same,pKd,"IL16_1, Q14005; [1]",below the threshold
same,pKd,"SNTG1, Q9NSN8; [1]",below the threshold
same,pKd,"HTRA3, P83110; [1]",below the threshold
"TESNLQTSSC [CGN, Q9P2M7]",pKd,"DFNB31_3, Q9P202; [1]",below the threshold
same,pKd,"APBA2_1, Q99767; [1]",below the threshold
same,pKd,"GRIP2_5, Q9C0E4; [1]",below the threshold
same,pKd,"Inadl_6, Q8NI35; [1]",below the threshold
same,pKd,"HTRA1, Q92743; [1]",below the threshold
same,pKd,"Inadl_9, Q8NI35; [1]",below the threshold
same,pKd,"DLG3_3, Q92796; [1]",below the threshold
same,pKd,"APBA3_1, O96018; [1]",below the threshold
same,pKd,"MAST1, Q9Y2H9; [1]",below the threshold
same,pKd,"NHERF2_2, Q15599; [1]",below the threshold
same,pKd,"DFNB31_2, Q9P202; [1]",below the threshold
same,pKd,"MPP6, Q9NZW5; [1]",below the threshold
same,pKd,"LAP2, Q96RT1; [1]",below the threshold
same,pKd,"PARD3B_1, Q8TEW8; [1]",below the threshold
same,pKd,"DLG4_3, P78352; [1]",below the threshold
same,pKd,"GRASP, Q7Z6J2; [1]",3.95
same,pKd,"LNX1_2, Q8TBB1; [1]",below the threshold
same,pKd,"DLG3_2, Q92796; [1]",below the threshold
same,pKd,"SNTA1, Q13424; [1]",below the threshold
same,pKd,"Inadl_2, Q8NI35; [1]",below the threshold
same,pKd,"SCRIB_1, Q14160; [1]",below the threshold
same,pKd,"IL16_4, Q14005; [1]",below the threshold
same,pKd,"MAGI2_4, Q86UL8; [1]",3.53
same,pKd,"IL16_1, Q14005; [1]",below the threshold
same,pKd,"SNTG1, Q9NSN8; [1]",below the threshold
same,pKd,"HTRA3, P83110; [1]",below the threshold
"RSSGGDDFWF [KCNV1, Q6PIU1]",pKd,"DFNB31_3, Q9P202; [2]",4.02
same,pKd,"APBA2_1, Q99767; [2]",below the threshold
same,pKd,"GRIP2_5, Q9C0E4; [2]",below the threshold
same,pKd,"Inadl_6, Q8NI35; [2]",below the threshold
same,pKd,"HTRA1, Q92743; [2]",4.61
same,pKd,"Inadl_9, Q8NI35; [2]",below the threshold
same,pKd,"DLG3_3, Q92796; [2]",below the threshold
same,pKd,"APBA3_1, O96018; [2]",below the threshold
same,pKd,"MAST1, Q9Y2H9; [2]",4.01
same,pKd,"NHERF2_2, Q15599; [2]",4.69
same,pKd,"DFNB31_2, Q9P202; [2]",below the threshold
same,pKd,"MPP6, Q9NZW5; [2]",below the threshold
same,pKd,"LAP2, Q96RT1; [2]",below the threshold
same,pKd,"PARD3B_1, Q8TEW8; [2]",4.48
same,pKd,"DLG4_3, P78352; [2]",below the threshold
same,pKd,"GRASP, Q7Z6J2; [2]",below the threshold
same,pKd,"LNX1_2, Q8TBB1; [2]",below the threshold
same,pKd,"DLG3_2, Q92796; [2]",4.06
same,pKd,"SNTA1, Q13424; [2]",below the threshold
same,pKd,"Inadl_2, Q8NI35; [2]",4.28
same,pKd,"SCRIB_1, Q14160; [2]",below the threshold
same,pKd,"IL16_4, Q14005; [2]",below the threshold
same,pKd,"MAGI2_4, Q86UL8; [2]",4.13
same,pKd,"IL16_1, Q14005; [2]",below the threshold
same,pKd,"SNTG1, Q9NSN8; [2]",below the threshold
same,pKd,"HTRA3, P83110; [2]",4.37
"GTGYDRKDYV [CLDN3, O15551]",pKd,"DFNB31_3, Q9P202; [2]",4.06
same,pKd,"APBA2_1, Q99767; [2]",below the threshold
same,pKd,"GRIP2_5, Q9C0E4; [2]",below the threshold
same,pKd,"Inadl_6, Q8NI35; [2]",below the threshold
same,pKd,"HTRA1, Q92743; [2]",4.14
same,pKd,"Inadl_9, Q8NI35; [2]",3.93
same,pKd,"DLG3_3, Q92796; [2]",3.64
same,pKd,"APBA3_1, O96018; [2]",below the threshold
same,pKd,"MAST1, Q9Y2H9; [2]",4.03
same,pKd,"NHERF2_2, Q15599; [2]",3.6
same,pKd,"DFNB31_2, Q9P202; [2]",below the threshold
same,pKd,"MPP6, Q9NZW5; [2]",below the threshold
same,pKd,"LAP2, Q96RT1; [2]",below the threshold
same,pKd,"PARD3B_1, Q8TEW8; [2]",3.51
same,pKd,"DLG4_3, P78352; [2]",below the threshold
same,pKd,"GRASP, Q7Z6J2; [2]",below the threshold
same,pKd,"LNX1_2, Q8TBB1; [2]",below the threshold
same,pKd,"DLG3_2, Q92796; [2]",below the threshold
same,pKd,"SNTA1, Q13424; [2]",below the threshold
same,pKd,"Inadl_2, Q8NI35; [2]",below the threshold
same,pKd,"SCRIB_1, Q14160; [2]",below the threshold
same,pKd,"IL16_4, Q14005; [2]",3.73
same,pKd,"MAGI2_4, Q86UL8; [2]",3.85
same,pKd,"IL16_1, Q14005; [2]",below the threshold
same,pKd,"SNTG1, Q9NSN8; [2]",below the threshold
same,pKd,"HTRA3, P83110; [2]",4.17
